# Results as given in paper PMC13598120.
# Target: GNL3, endogenous (UniProt Q9BVP2)
# Assay: PLA (α-Flag + α-GNL3)
# Details: U2OS cells, 2 h, read off a plot
# GNL3, endogenous, sequence (Q9BVP2 whole entry): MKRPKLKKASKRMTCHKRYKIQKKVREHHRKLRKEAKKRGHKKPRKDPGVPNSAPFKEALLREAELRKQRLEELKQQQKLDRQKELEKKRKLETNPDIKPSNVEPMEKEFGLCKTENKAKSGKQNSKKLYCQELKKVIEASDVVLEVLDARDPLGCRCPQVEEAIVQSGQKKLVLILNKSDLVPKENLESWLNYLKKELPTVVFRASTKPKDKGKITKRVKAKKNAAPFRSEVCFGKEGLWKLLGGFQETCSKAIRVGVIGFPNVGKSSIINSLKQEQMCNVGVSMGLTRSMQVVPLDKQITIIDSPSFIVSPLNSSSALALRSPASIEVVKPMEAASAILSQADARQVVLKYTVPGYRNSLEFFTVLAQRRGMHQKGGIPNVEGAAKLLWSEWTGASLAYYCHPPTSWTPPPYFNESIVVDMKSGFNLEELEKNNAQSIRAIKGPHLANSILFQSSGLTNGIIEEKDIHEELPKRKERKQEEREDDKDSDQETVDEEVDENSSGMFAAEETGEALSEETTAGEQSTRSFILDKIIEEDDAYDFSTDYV
substance,measurement,setting,value
"Flag-BLM, wild type (from UniProt P54132) SIMdm (both SIMs, 217QIDL220 and 235VICI238, mutated; substitutions not printed)",response (PLA dots per cell),"20 μM ETO, parent: est. 54",28
same,response (PLA dots per cell),"DMSO (control), parent: est. 16",11
